# In patent US5276170A, “Azido-substituted aromatic amino acids” (The United States of America as represented by the …, priority 1992, dated 1994):
# Substrate: [N-]=[N+]=Nc1cc(O)ccc1C[C@H](N)C(=O)O
# Assay: Tyrosine phenol-lyase catalyzed hydrolytic cleavage to ammonium pyruvate and 3-azidophenol
# Format: biochemical
# Details: other: as substrate
protein,measurement,value
tyrosine phenol-lyase (Citrobacter freundii) (protein) MNYPAEPFRIKSVETVSMIPRDERLKKMQEAGYNTFLLNSKDIYIDLLTDSGTNAMSDKQWAGMMMGDEAYAGSENFYHLERTVQELFGFKHIVPTHQGRGAENLLSQLAIKPGQYVAGNMYFTTTRYHQEKNGAVFVDIVRDEAHDAGLNIAFKGDIDLKKLQKLIDEKGAENIAYICLAVTVNLAGGQPVSMANMRAVRELTEAHGIKVFYDATRCVENAYFIKEQEQGFENKSIAEIVHEMFSYADGCTMSGKKDCLVNIGGFLCMNDDEMFSSAKELVVVYEGMPSYGGLAGRDMEAMAIGLREAMQYEYIEHRVKQVRYLGDKLKAAGVPIVEPVGGHAVFLDARRFCEHLTQDEFPAQSLAASIYVETGVRSMERGIISAGRNNVTGEHHRPKLETVRLTIPRRVYTYAHMDVVADGIIKLYQHKEDIRGLKFIYEPKQLRFFTARFDYI,Km,1000 µM
